For 6 substances, koff, kon and Kd results are on record in article PMC3479090.

The target of test [1] is human CD1d construct with C-terminal 3C protease site and 6X-Histidine tag, loaded with α-galactosylceramide (form used for SPR), P15813;P61769. Put plainly: SPR. The conditions noted are these: read off a plot; for koff: parent: est. 0.34; for kon: parent: est. 1.3e4.
The target of test [2] is Vα24+ NKT TCR clone J24L.17 (iNKT TCR, Vα24-Jα18/Vβ11) (human). Nature of the test: SPR; same curves as the kinetic analysis plus 9 µM and 27 µM CD1d–αGalCer; TCR on the chip; equilibrium analysis. On the technique in general: Surface plasmon resonance follows binding to a sensor surface in real time, without labels.
Test [3] has the same target. Put plainly: SPR; BIAcore 3000; 300 RU of TCR captured on a Ni-NTA sensor chip, surface blocked with recombinant IgFc; CD1d–αGalCer injected (0, 0.037, 0.111, 0.333, 1, 3 µM for kinetics; series up to 27 µM) at 30 µl/min in 10 mM Hepes pH 7.4, 150 mM NaCl, 0.005% Tween-20; kinetic analysis, Langmuir 1:1 model.

As to “Vα24− TCR J24.N22 (Vα3.1-Jα18/Vβ11), soluble heterodimer with zippers and His tags S97A”, in test [1], the dissociation rate constant (koff) was found to be 0.52 s⁻¹, the kon stood at 30000 M⁻¹ s⁻¹ and the Kd stood at 1700 nM.
The corresponding values for “Vα24− TCR J24.N22 (Vα3.1-Jα18/Vβ11), soluble heterodimer with zippers and His tags N29A” are 0.89 s⁻¹, 3700 M⁻¹ s⁻¹ and 24000 nM.
For “Vα24− TCR J24.N22 (Vα3.1-Jα18/Vβ11), soluble heterodimer with zippers and His tags S27A”, in test [1], the koff stood at 0.51 s⁻¹, the kon stood at 12000 M⁻¹ s⁻¹ and the Kd came out at 4200 nM.
In the case of “Vα24− TCR J24.N22 (Vα3.1-Jα18/Vβ11), soluble heterodimer with zippers and His tags S50A”, in test [1], the koff came out at 0.38 s⁻¹, the kon came out at 23000 M⁻¹ s⁻¹ and the Kd turned out to be 1700 nM.
Turning to “Vα24− TCR J24.N22 (Vα3.1-Jα18/Vβ11), soluble heterodimer with zippers and His tags N51A”, in test [1], the kon amounted to 12000 M⁻¹ s⁻¹ and the Kd is 3400 nM.
With “human CD1d construct with C-terminal 3C protease site and 6X-Histidine tag, loaded with α-galactosylceramide (form used for SPR) (from UniProt P15813 20-335; P61769 21-119) (complex)”, the Kd in test [2] came out at 1900 nM. In test [3], the Kd was 2100 nM, the koff turned out to be 0.414 s⁻¹ and the kon worked out at 194000 M⁻¹ s⁻¹.

The koff is the first-order rate constant of dissociation. Broadly, the kon is a measure of how fast the partners come together. The Kd is the equilibrium constant for the complex coming apart.
